Measurements published in patent US9090705B2.

Columns and labels:
Aspart precursor [1] = biological target: Aspart precursor
Aspart precursor [2] = biological target: Aspart precursor; remark: listed apart in the source

Yield (%) of Glulisine, trypsin and Carboxypeptidase B added together (Glulisine precursor) [%] | Yield (%) of Lispro, trypsin and Carboxypeptidase B added together (Lispro precursor) [%] | Yield (%) of Aspart, trypsin and Carboxypeptidase B added together (Aspart precursor [1]) [%] | conversion of the precursor by trypsin alone (chromatographic profile after 8 hr) (Aspart precursor [2]) [%] | Substance
78 | 78 | 75 | – | Carboxypeptidase B (enzyme)
– | – | – | 45 | Trypsin (enzyme)
